This series deals with the molecule itself. The series is described as follows: SEC; TatA-strep purified from the soluble fraction (Strep-Tactin), Superose 6, 10 mM Hepes pH 8.0, 150 mM NaCl, no detergent; Western blot of elution fractions. A general note: In gel filtration, larger molecules generally elute earlier.

B1: Strep-tagged TatA from Escherichia coli (natural protein, UniProt P69428 1-89, looked up)
chain: MGGISIWQLLIIAVIVVLLFGTKKLGSIGSDLGASIKGFKKAMSDDEPKQDKTSQDADFTAKTIADKQADTNQEQAKTEDAKRHDKEQV
notes: TatA of Escherichia coli; The soluble form is a large association of many protomers; also called TatA-strep; soluble TatA-strep; source: E. coli DADE tatA-strep-tatBC (single-copy, wild-type level): in crude soluble extract; or purified from the soluble fraction (Strep-Tactin, Superose 6); not shown: Strep-tag, C-terminal, kept
As for B1, the binding result is recorded as “binds”.

The values above are taken from paper PMC4361764, “TatBC-Independent TatA/Tat Substrate Interactions Contribute to Transport Efficiency” (PLoS ONE, 2015).
